The values below come from patent US20240060046A1.

In this experiment the target is CD20 on CD20+ human Burkitt's lymphoma cell lines (Ramos, Raji) (human) (UniProt P11836). Put plainly: cell-based or functional assay.
UniProt P11836, sequence (P11836 whole entry): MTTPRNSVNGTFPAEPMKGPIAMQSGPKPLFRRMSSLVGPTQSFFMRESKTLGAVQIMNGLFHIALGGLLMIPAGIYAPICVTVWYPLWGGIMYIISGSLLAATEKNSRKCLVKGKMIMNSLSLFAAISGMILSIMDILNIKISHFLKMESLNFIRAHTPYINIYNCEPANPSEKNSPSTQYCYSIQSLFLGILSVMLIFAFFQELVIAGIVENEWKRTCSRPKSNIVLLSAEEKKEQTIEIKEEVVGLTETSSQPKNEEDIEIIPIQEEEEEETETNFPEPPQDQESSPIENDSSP

Turning to “Rituximab (Mabthera or Rituxan) (antibody)”, the Viable Raji cells (%), long-term ADCC, AB-101 + RTX, 24 hrs (mean of 9 AB-101 batches) is 23.9%; the Viable Raji cells (%), long-term ADCC, AB-101 + RTX, 48 hrs (mean of 9 AB-101 batches) stood at 11.7%; the Viable Raji cells (%), long-term ADCC, AB-101 + RTX, 72 hrs (mean of 9 AB-101 batches) stood at 10.1%; the Viable Ramos cells (%), long-term ADCC, AB-101 + RTX, 24 hrs (mean of 9 AB-101 batches) is 47.6%. Besides, the Viable Ramos cells (%), long-term ADCC, AB-101 + RTX, 48 hrs (mean of 9 AB-101 batches) was determined as 28.1%; the Viable Ramos cells (%), long-term ADCC, AB-101 + RTX, 72 hrs (mean of 9 AB-101 batches) turned out to be 19%; the lysis of Raji target cells at the end of 72 hour co-culture, AB-101 combined with rituximab, E:T 1:1 was 90%; the lysis of Ramos target cells at the end of 72 hrs co-culture, AB-101 combined with rituximab, E:T 1:1 turned out to be 80%.
